As usually defined, the Kd is the concentration at which binding is half-saturated. As usually defined, the IC50 is the concentration that inhibits the measured activity by half. Low readings indicate greater potency, high ones weaker potency.

Bounds are passed on as bounds.

For assay [1], the target named is HLA-B*15:01. Nature of the assay: IEDB peptide-MHC binding, purified MHC/competitive/fluorescence; filed as Kd, often an IC50 or EC50 that approximates it; ≥ and ≤ were set here for values at or beyond the usual limits of such assays.
The target in a further assay is HLA-A*29:02. Described as above.
Assay [2] concerns the target HLA-A*02:01. Described as above.
Another assay concerns the target HLA-B*46:01. The assay is described as above.
The next assay addresses HLA-A*02:11. The assay is described as above.
For a further assay, the target named is HLA-A*24:03. The description is as above.
The next assay deals with HLA-B*39:01. Described as above.
The next assay addresses HLA-B*57:01. Described as above.
Assay [3] concerns the target HLA-A*03:01. Described as above.
The target of a further assay is HLA-B*51:01. Described as above.
The target of a further assay is HLA-A*26:01. The description is as above.
The next assay concerns the target HLA-B*18:01. The description is as above.
Another assay concerns the target HLA-B*27:03. The assay is described as above.
The target of a further assay is HLA-A*80:01. The assay can be described thus: IEDB peptide-MHC binding, purified MHC/direct/fluorescence; filed as Kd, often an IC50 or EC50 that approximates it; ≥ and ≤ were set here for values at or beyond the usual limits of such assays. The settings on record: source organism: Bacillus anthracis.
The next assay deals with HLA-A*01:01. The assay is described as above. The settings on record: source organism: Bacillus anthracis.
Another assay deals with HLA-B*40:01. Nature of the assay: IEDB peptide-MHC binding, purified MHC/competitive/fluorescence; filed as Kd, often an IC50 or EC50 that approximates it; ≥ and ≤ were set here for values at or beyond the usual limits of such assays.
The target of the next assay is HLA-B*08:01. Nature of the assay: IEDB peptide-MHC binding, purified MHC/competitive/fluorescence; ≥ and ≤ were set here for values at or beyond the usual limits of such assays.
The next assay deals with HLA-A*30:01. The assay can be described thus: IEDB peptide-MHC binding, purified MHC/competitive/radioactivity; filed as Kd, often an IC50 or EC50 that approximates it; ≥ and ≤ were set here for values at or beyond the usual limits of such assays. As to conditions: source organism: Vaccinia virus WR.
For another assay, the target named is HLA-B*07:02. The assay can be described thus: IEDB peptide-MHC binding, purified MHC/competitive/fluorescence; ≥ and ≤ were set here for values at or beyond the usual limits of such assays.
The target in a further assay is HLA-A*24:02. The description is as above.
Another assay has as its target HLA-A*02:19. The assay can be described thus: IEDB peptide-MHC binding, purified MHC/competitive/fluorescence; filed as Kd, often an IC50 or EC50 that approximates it; ≥ and ≤ were set here for values at or beyond the usual limits of such assays.
The next assay deals with HLA-A*69:01. The description is as above.
The next assay deals with HLA-A*02:12. The description is as above.
Another assay has as its target HLA-A*02:16. Described as above.
The target in another assay is HLA-A*02:03. Described as above.
The next assay concerns the target HLA-A*68:02. The description is as above.
For the next assay, the target named is HLA-B*15:17. Described as above. The settings on record: source organism: Cryptosporidium parvum Iowa II.
For assay [4], the target named is HLA-B*15:01. Nature of the assay: IEDB peptide-MHC binding, purified MHC/competitive/fluorescence; ≥ and ≤ were set here for values at or beyond the usual limits of such assays. As to conditions: source organism: Zaire ebolavirus.
The target in assay [5] is HLA-A*02:01. Described as above. The settings on record: source organism: Zaire ebolavirus.
The target of assay [6] is HLA-A*03:01. The description is as above. As to conditions: source organism: Zaire ebolavirus.
The target of a further assay is HLA-A*11:01. Described as above. The settings on record: source organism: Zaire ebolavirus.
A further assay concerns the target HLA-A*31:01. The assay can be described thus: IEDB peptide-MHC binding, purified MHC/competitive/fluorescence; filed as Kd, often an IC50 or EC50 that approximates it; ≥ and ≤ were set here for values at or beyond the usual limits of such assays. As to conditions: source organism: Bacillus anthracis str. A0488.
[7] abbreviates: source organism: Burkholderia vietnamiensis G4.
[8] abbreviates: source organism: Escherichia coli E22.
Setting [9] is: source organism: Vaccinia virus WR.
The mark [10] stands for this setting: source organism: Human immunodeficiency virus 1.
Setting [11] is: source organism: Cryptosporidium parvum Iowa II.
[12] abbreviates: source organism: Zaire ebolavirus.
[13] abbreviates: source organism: Rickettsia sibirica 246.
The mark [14] stands for this setting: source organism: Burkholderia pseudomallei 91.
Where [15] appears, read: source organism: Listeria monocytogenes J0161.
[16] abbreviates: source organism: Bacillus anthracis str. A0488.

Take PLFKRGWRL: the Kd in the assay with HLA-B*15:01 [1] (setting [7]) was not below 20 µM; in the assay with HLA-A*29:02 (setting [7]), not below 20 µM; with HLA-A*02:01 [2] (setting [7]) it was 0.199 µM; with HLA-B*46:01 (setting [7]), not below 20 µM; with HLA-A*02:11 (setting [7]), 0.0285 µM; in the assay with HLA-A*24:03 (setting [7]), not below 20 µM. Moreover, the Kd with HLA-B*39:01 (setting [7]), with HLA-B*57:01 (setting [7]), in the assay with HLA-A*03:01 [3] (setting [7]), in the assay with HLA-B*51:01 (setting [7]), in the assay with HLA-A*26:01 (setting [7]) and in the assay with HLA-B*18:01 (setting [7]) was not below 20 µM in each case. Also, the Kd with HLA-B*27:03 (setting [7]) is not below 20 µM.

Turning to SVHYKFVTK, the Kd with HLA-A*80:01 and with HLA-A*01:01 was not below 20 µM each time.

Regarding DEIAFGLKL, the Kd is not below 20 µM with HLA-B*15:01 [1] (setting [8]) and 3 µM with HLA-B*40:01 (setting [8]).

The sequence FLKIKVTAA yielded an IC50 with HLA-B*08:01 (source organism: Vaccinia virus Copenhagen) of 15.6 µM.

In the assay with HLA-B*08:01 (source organism: Vaccinia virus), HFKPPKFRA registered an IC50 not below 150 µM. In addition, the Kd with HLA-A*30:01 amounted to 0.00886 µM.

For LPKRSVMLI, the IC50 in the assay with HLA-B*07:02 (setting [9]) was 6.45 µM; with HLA-A*24:02 (setting [9]), not below 93 µM; with HLA-B*08:01 (setting [9]), 12.9 µM.

For the sequence GLGQYIYET, the Kd is 0.254 µM in the assay with HLA-A*02:19 (setting [10]); not below 20 µM in the assay with HLA-A*69:01 (setting [10]); 0.14 µM in the assay with HLA-A*02:01 [2] (setting [10]); 0.039 µM in the assay with HLA-A*02:12 (setting [10]); 0.0322 µM with HLA-A*02:11 (setting [10]); 0.000819 µM with HLA-A*02:16 (setting [10]). Moreover, the Kd with HLA-A*02:03 (setting [10]) stood at 0.294 µM.

Take KLYLRPWWH: the equilibrium dissociation constant (Kd) with HLA-A*02:19 (setting [11]) was not below 20 µM; with HLA-A*69:01 (setting [11]), not below 20 µM; in the assay with HLA-B*15:01 [1] (setting [11]), not below 20 µM; with HLA-A*29:02 (setting [11]), 0.683 µM; with HLA-A*02:01 [2] (setting [11]) it was not below 20 µM; in the assay with HLA-A*68:02 (setting [11]) it was not below 20 µM. The dissociation constant Kd with HLA-B*46:01 (setting [11]), with HLA-A*02:12 (setting [11]), with HLA-A*02:11 (setting [11]), with HLA-A*02:16 (setting [11]), with HLA-A*24:03 (setting [11]) and with HLA-B*39:01 (setting [11]) was not below 20 µM each time. Besides, the Kd was not below 20 µM with HLA-B*57:01 (setting [11]); 0.0044 µM in the assay with HLA-A*03:01 [3] (setting [11]); not below 20 µM with HLA-B*15:17; not below 20 µM in the assay with HLA-B*51:01 (setting [11]); not below 20 µM with HLA-A*26:01 (setting [11]); not below 20 µM with HLA-A*02:03 (setting [11]). The Kd in the assay with HLA-B*18:01 (setting [11]) and in the assay with HLA-B*27:03 (setting [11]) was not below 20 µM throughout.

For RFKRTSFFL, the IC50 was not below 215 µM with HLA-B*07:02 (setting [12]); 9.58 µM with HLA-B*15:01 [4]; not below 117 µM with HLA-A*02:01 [5]; 26.5 µM in the assay with HLA-B*08:01 (setting [12]); not below 504 µM with HLA-A*03:01 [6]; not below 390 µM with HLA-A*11:01.

Consider YLKKLDDFY, for which the Kd with HLA-A*02:19 (setting [13]), in the assay with HLA-A*69:01 (setting [13]), with HLA-A*02:01 [2] (setting [13]), in the assay with HLA-A*68:02 (setting [13]), with HLA-B*46:01 (setting [13]) and with HLA-A*02:12 (setting [13]) was not below 20 µM throughout. Also, the Kd with HLA-A*02:11 (setting [13]), with HLA-A*02:16 (setting [13]), with HLA-A*24:03 (setting [13]), with HLA-B*39:01 (setting [13]), in the assay with HLA-B*57:01 (setting [13]) and with HLA-A*03:01 [3] (setting [13]) was not below 20 µM throughout. Also, the dissociation constant Kd with HLA-B*51:01 (setting [13]), in the assay with HLA-A*26:01 (setting [13]), with HLA-B*18:01 (setting [13]) and in the assay with HLA-B*27:03 (setting [13]) was not below 20 µM each time.

For the sequence RAYAAMHLW, the Kd in the assay with HLA-A*02:19 (setting [14]), with HLA-A*69:01 (setting [14]), with HLA-A*02:01 [2] (setting [14]), with HLA-A*68:02 (setting [14]), with HLA-B*46:01 (setting [14]) and with HLA-A*02:12 (setting [14]) was not below 20 µM throughout. The Kd with HLA-A*02:11 (setting [14]) was not below 20 µM; in the assay with HLA-A*02:16 (setting [14]), not below 20 µM; in the assay with HLA-B*39:01 (setting [14]), not below 20 µM; with HLA-B*57:01 (setting [14]), 0.31 µM; with HLA-A*03:01 [3] (setting [14]) it was not below 20 µM; with HLA-A*26:01 (setting [14]), not below 20 µM. The dissociation constant Kd in the assay with HLA-A*02:03 (setting [14]) and with HLA-B*27:03 (setting [14]) was not below 20 µM each time.

IEIARTLTL: the Kd in the assay with HLA-B*40:01 (source organism: Salmonella enterica subsp. enterica serovar Typhi) is 0.0108 µM.

With YNAKRIETV, the Kd with HLA-A*02:19 (setting [15]), with HLA-B*15:01 [1] (setting [15]), in the assay with HLA-A*29:02 (setting [15]), in the assay with HLA-A*02:01 [2] (setting [15]), in the assay with HLA-B*46:01 (setting [15]) and with HLA-A*02:12 (setting [15]) was not below 20 µM throughout. Moreover, the Kd was 0.239 µM with HLA-A*02:11 (setting [15]); not below 20 µM with HLA-A*24:03 (setting [15]); not below 20 µM with HLA-B*39:01 (setting [15]); not below 20 µM in the assay with HLA-B*57:01 (setting [15]); not below 20 µM in the assay with HLA-A*03:01 [3] (setting [15]); not below 20 µM with HLA-B*51:01 (setting [15]). Further, the Kd with HLA-A*26:01 (setting [15]), in the assay with HLA-A*02:03 (setting [15]), with HLA-B*18:01 (setting [15]) and with HLA-B*27:03 (setting [15]) was not below 20 µM throughout.

IAVARKHHT: the IC50 with HLA-A*24:02 (source organism: Variola virus) is 49.4 µM; with HLA-B*08:01 (source organism: Variola virus), not below 91.6 µM.

On to IQKGMFVVK, for which the Kd was not below 20 µM with HLA-A*02:19 (setting [16]); not below 20 µM with HLA-A*69:01 (setting [16]); 0.0158 µM with HLA-A*31:01; not below 20 µM with HLA-A*02:01 [2] (setting [16]); not below 20 µM with HLA-A*68:02 (setting [16]); not below 20 µM in the assay with HLA-B*46:01 (setting [16]). Besides, the Kd in the assay with HLA-A*02:12 (setting [16]), with HLA-A*02:11 (setting [16]), with HLA-A*02:16 (setting [16]), with HLA-A*24:03 (setting [16]), with HLA-B*39:01 (setting [16]) and in the assay with HLA-B*57:01 (setting [16]) was not below 20 µM throughout. Besides, the Kd with HLA-B*51:01 (setting [16]), with HLA-A*26:01 (setting [16]), with HLA-A*02:03 (setting [16]), in the assay with HLA-B*18:01 (setting [16]) and with HLA-B*27:03 (setting [16]) was not below 20 µM each time.
